Residue numbers refer to the chain shown, from its start.
Legend:
Test in all cases: flow cytometry, alanine-scan library in HEK-293T, with cytochalasin B
hsGLUT4 P224A = biological target: T1, hsGLUT4 P224A (human, UniProt P14672 1-509)
T1 sequence: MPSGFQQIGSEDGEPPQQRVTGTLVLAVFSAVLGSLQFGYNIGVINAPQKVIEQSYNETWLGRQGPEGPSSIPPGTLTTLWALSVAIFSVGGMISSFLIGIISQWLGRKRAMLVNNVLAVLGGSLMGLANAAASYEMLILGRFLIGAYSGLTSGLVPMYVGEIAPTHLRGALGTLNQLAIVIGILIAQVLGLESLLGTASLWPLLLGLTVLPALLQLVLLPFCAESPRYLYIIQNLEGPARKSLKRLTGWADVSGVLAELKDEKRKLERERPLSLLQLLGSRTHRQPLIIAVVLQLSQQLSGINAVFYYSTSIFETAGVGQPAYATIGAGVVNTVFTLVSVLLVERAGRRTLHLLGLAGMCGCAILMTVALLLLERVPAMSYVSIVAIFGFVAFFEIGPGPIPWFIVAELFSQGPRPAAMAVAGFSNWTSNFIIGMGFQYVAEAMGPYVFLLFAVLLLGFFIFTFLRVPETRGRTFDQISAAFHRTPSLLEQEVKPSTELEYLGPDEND
Experimental: (§1) Because of the state-dependence of the isolated MAbs, we next wished to understand the mechanism by which each MAb could recognize GLUT4 in its different conformations. The residues required for binding of each MAb were determined using shotgun mutagenesis comprehensive alanine scanning (Davidson E & Doranz B J (2014) A High-Throughput Shotgun Mutagenesis Approach to Mapping B-cell Antibody Epitopes. Immunology, which is hereby incorporated by reference in its entirety). All residues of hsGLUT4 were individually mutated to alanine, with existing alanines changed to serines. Mutations were obtained for 508 of the 509 residues of GLUT4 (excluding the initiating methionine). The entire mutation library was transfected into human HEK-293T cells in a 384-well array format (one clone per well) and assessed for immunoreactivity using high-throughput flow cytometry.
(§2) HEK-293T cells were transfected by CaPO₄ with plasmids in 6-well culture plates (Falcon) at 750,000 cells/well. At 48 hours post transfection, cells were stained with anti-V5 and anti-GLUT4 MAbs (purified scFv, 2 μg/ml) followed by biotinylated goat anti-mouse or human antibody (1:500) and streptavidin-PerCP (1:500). Fluorescence was detected using an Intellicyt high-throughput flow cytometer (HTFC; Intellicyt, Albuquerque, N. Mex.). For cell permeabilization, cells were treated with saponin at 0.1% in PBS for 20 minutes. To discriminate intact (live) and permeabilized (dead) cells without the use of detergent, propidium iodide (PI) was added to HEK-293T cells at 1 ug/ml just prior to flow cytometry. Where indicated, cytochalasin B (Sigma) was used at a final concentration of 10 uM and phloretin (Sigma) was used at a final concentration of 100 uM, each added in 10% NGS for 30 minutes prior to antibody staining as well as included with the primary antibody.

hsGLUT4 E345A = biological target: T2, hsGLUT4 E345A (human, UniProt P14672 1-509)
T2 sequence: T1 sequence with A224P, E345A
Experimental: as §1, §2

hsGLUT4 F405A = biological target: T3, hsGLUT4 F405A (human, UniProt P14672 1-509)
T3 sequence: T1 sequence with A224P, F405A
Experimental: as §1, §2

hsGLUT4 E162A = biological target: T4, hsGLUT4 E162A (human, UniProt P14672 1-509)
T4 sequence: T1 sequence with E162A, A224P
Experimental: as §1, §2

% of binding to wild type GLUT4 (hsGLUT4 P224A): 29%
% of binding to wild type GLUT4 (hsGLUT4 E345A): 80%
% of binding to wild type GLUT4 (hsGLUT4 F405A): 105%
% of binding to wild type GLUT4 (hsGLUT4 E162A): 7%
B1: AB102 (Fc fusion)
scFv: ALTQPSSVSANLGGTVKITCSGGGSYGYGWYQQKSPGSAPVTVIYSNDQRPSDIPSRFSGSKSGSTATLTITGVRAEDEAIYYCGSTDSDYVGIFGAGTTLTVLGQSSRSSGGGGSSGGGGSAVTLDESGGGLQTPGGTLSLVCKASGFDFSSYATIWVRQAPGKGLEWVAGISGTGTGSSTGYAPAVKGRATISRDNGQSTVRLQLNNLRAEDTGSYFCAKSTGYGDSWIYPDSIDAWGHGTEVIVSS
notes: also called MAb AB102; not shown: Fc fragment of human IgG1, cloned in frame with the scFv

From patent US20210238276A1 (INTEGRAL MOLECULAR, published 2021)
